Binding signal (% of unmodified CDK200) data for one sequence are collected here from US20240092844.

The subject of the data set is KLF6-CDK200 RTF 8 phosphate-contact mutant 8 phosphate-contacting Arg to Gln (Homo sapiens). Put plainly: cell_activity. The following applies: on-target activity reduced 12%; only CDKN1C upregulated in RNA-seq.

For the sequence “TTGAAACTGAAAATACTACATTATGCTA (double strand) [CDKN1C target 200]”, the binding signal (% of unmodified CDK200) was determined as 88.
